Measured values as given in US7067618B1, “Medicinal preparations” (Kyowa Hakko Kogyo Co., Ltd., priority 1998, dated 2006).

Key:
[1] = Release of sialyllactose from insulin-sialyllactose reaction products caused by pH lowering (HPLC); format: physicochemical; settings: for Proportion by HPLC, Release of Sialyllactose Caused by pH Lowering to 5.3: pH 5.3, 40° C.; for Proportion by HPLC, Release of Sialyllactose Caused by pH Lowering to 6.4: pH 6.4, 40° C.
Method: Bovine pancreatic insulin (0.2 mg, Wako Pure Chemical Industries, Ltd.) was dissolved in 1 mL of a 1 mmol/L aqueous solution of hydrochloric acid. To about 25 mg of sialyllactose of 75% purity (a mixture of 3′-sialyllactose and 6′-sialyllactose, Boehringer Mannheim GmbH) was added 0.1 mL of a 600 mmol/L aqueous solution of disodium hydrogenphosphate to make a solution. The insulin solution (0.1 mL) and the sialyllactose solution (0.1 mL) were mixed in a test tube to give a mixture having a pH of about 7.8. The test tube was put into a constant temperature water bath at 40° C. to cause reaction and left for 3 days. The reaction mixture was sampled intermittently, followed by centrifugation at 3000 rpm for 20 minutes to remove insoluble materials. The samples collected 0, 1 and 3 days after the start of the reaction were analyzed for products obtained by the reaction of insulin with sialyllactose by HPLC under the following conditions. • Column: YMC-Pack ODS-AP, 4.6×150 mm • Mobile phase: 20 mmol/L phosphate buffer (pH 8.0) containing 0.001% Triton X-100: acetonitrile containing 0.001% Triton X-100=411 parts by volume: 140 parts by volume • Flow rate: 1.3 mL/minute • Detection wavelength: 220 nm
(§1) Bovine pancreatic insulin (0.2 mg, Wako Pure Chemical Industries, Ltd.) was dissolved in 1 mL of a 1 mmol/L aqueous solution of hydrochloric acid. To about 25 mg of sialyllactose of 75% purity (a mixture of 3′-sialyllactose and 6′-sialyllactose, Boehringer Mannheim GmbH) was added 0.1 mL of a 600 mmol/L aqueous solution of disodium hydrogenphosphate to make a solution. The insulin solution (0.1 mL) and the sialyllactose solution (0.1 mL) were mixed in a test tube to give a solution having a pH of about 7.8. This solution was subjected to reaction at 40° C. for 3 days and then centrifuged at 3000 rpm for 20 minutes. To 40 μL of the supernatant was added 0.04 mL of a 50 mmol/L-aqueous solution of citric acid to adjust the pH to 6.4, and the resulting solution was subjected to reaction at 40° C. The reaction mixture was intermittently sampled and analyzed for products obtained by the reaction of insulin with sialyllactose by HPLC in a manner similar to that in Example 2.
as §1, with “centrifuged 1” for “centrifuged”, “100 mmol/L aqueous” for “50 mmol/L-aqueous”, “5.3,” for “6.4,”

[2] = Release of lactose from insulin-lactose reaction products caused by pH lowering (HPLC); format: physicochemical; settings: for Proportion by HPLC, Release of Lactose Caused by pH Lowering to 5.0: pH 5.0, 40° C.; for Proportion by HPLC, Release of Lactose Caused by pH Lowering to 5.9: pH 5.9, 40° C.; for Proportion by HPLC, Release of Lactose Caused by pH Lowering to 6.7: pH 6.7, 40° C.
Method: A solution of 0.2 mg of bovine pancreatic insulin (Wako Pure Chemical Industries, Itd.) in 1 mL of a 2 mmol/L aqueous solution of hydrochloric acid, a solution of 320 mg of anhydrous β-lactose (Nacalai Tesque, Inc.) in 2 mL of distilled water, and 1 mL of a 200 mmol/L phosphate buffer (pH 8.4) were mixed in a test tube to give a mixture having a pH of about 8.1. The test tube was put into a constant temperature water bath at 40° C. to cause reaction. The reaction mixture was sampled after 0, 5 and 24 hours, and analyzed for products obtained by the reaction of insulin with lactose by high performance liquid chromatography (HPLC) under the following conditions. • Column: YMC-Pack ODS-A or YMC-Pack ODS-AM, 6.0×150 mm • Mobile phase: 100 mmol/L phosphate buffer (pH 8.0) containing 0.001% Triton X-100: acetonitrile containing 0.001% Triton X-100=25 parts by volume: 9 parts by volume • Flow rate: 1.3 mL/minute • Detection wavelength: 210 nm
(§2) A solution of 0.2 mg of bovine pancreatic insulin (Wako Pure Chemical Industries, Itd.) in 1 mL of a 2 mmol/L aqueous solution of hydrochloric acid, a solution of 320 mg of anhydrous β-lactose (Nacalai Tesque, Inc.) in 2 mL of distilled water, and 1 mL of a 200 mmol/L phosphate buffer (pH 8.4) were mixed in a test tube. The mixture was subjected to reaction at 40° C. for 24 hours. To 3 mL of the resulting solution was added 0.5 mL of a 50 mmol/L aqueous solution of citric acid to adjust the pH to 6.7, and the mixture was subjected to reaction at 40° C. The samples collected from the reaction mixture 0 and 30 minutes after the start of the reaction were analyzed for products obtained by the reaction of insulin with lactose by HPLC in a manner similar to that in Example 1.
as §2, with “100” for “50”, “5.9,” for “6.7,”, “The” for “The samples collected from the”, “was intermittently” for “0 and 30 minutes after the start of the reaction were”
as §2, with “a 150” for “a 50”, “to 5.0,” for “to 6.7,”, “The” for “The samples collected from the”, “mixture was intermittently sampled” for “mixture 0”, “and” for “and 30 minutes after the start of the reaction were”

## Insulin: bovine pancreatic insulin (Wako Pure Chemical Industries); free insulin to which no sugar is bound
[1]; 0 minute
  Proportion by HPLC, Release of Sialyllactose Caused by pH Lowering to 5.3: 31%
  Proportion by HPLC, Release of Sialyllactose Caused by pH Lowering to 6.4: 31%
[1]; 10 minutes
  Proportion by HPLC, Release of Sialyllactose Caused by pH Lowering to 5.3: 58%
  Proportion by HPLC, Release of Sialyllactose Caused by pH Lowering to 6.4: 44%
[1]; 30 minutes
  Proportion by HPLC, Release of Sialyllactose Caused by pH Lowering to 5.3: 80%
  Proportion by HPLC, Release of Sialyllactose Caused by pH Lowering to 6.4: 50%
[2]; 0 minute
  Proportion by HPLC, Release of Lactose Caused by pH Lowering to 5.0: 21%
  Proportion by HPLC, Release of Lactose Caused by pH Lowering to 5.9: 24%
  Proportion by HPLC, Release of Lactose Caused by pH Lowering to 6.7: 25%
[2]; 2 minutes
  Proportion by HPLC, Release of Lactose Caused by pH Lowering to 5.0: 60%
  Proportion by HPLC, Release of Lactose Caused by pH Lowering to 5.9: 35%
[2]; 10 minutes
  Proportion by HPLC, Release of Lactose Caused by pH Lowering to 5.0: 83%
  Proportion by HPLC, Release of Lactose Caused by pH Lowering to 5.9: 59%
[2]; 30 minutes
  Proportion by HPLC, Release of Lactose Caused by pH Lowering to 5.0: 93%
  Proportion by HPLC, Release of Lactose Caused by pH Lowering to 5.9: 76%
  Proportion by HPLC, Release of Lactose Caused by pH Lowering to 6.7: 45%
[2]; 60 minutes
  Proportion by HPLC, Release of Lactose Caused by pH Lowering to 5.0: 95%
  Proportion by HPLC, Release of Lactose Caused by pH Lowering to 5.9: 75%
